Measured values reported in article PMC9579204, “A simple thermodynamic description of phase separation of Nup98 FG domains” (Nature Communications, 2022).

B1: prf.GLFG_(26×12) (domain or fragment)
chain: GGLFGGNTQPATGGLFGGNTQPATGGLFGGNTQPATGGLFGGNTQPATGGLFGGNTQPATGGLFGGNTQPATGGLFGGNTQPATGGLFGGNTQPATGGLFGGNTQPATGGLFGGNTQPATGGLFGGNTQPATGGLFGGNTQPATGGLFGGNTQPATGGLFGGNTQPATGGLFGGNTQPATGGLFGGNTQPATGGLFGGNTQPATGGLFGGNTQPATGGLFGGNTQPATGGLFGGNTQPATGGLFGGNTQPATGGLFGGNTQPATGGLFGGNTQPATGGLFGGNTQPATGGLFGGNTQPATGGLFGGNTQPAT
notes: also called N = 26; 26× repeats; source: E. coli NEB Express, soluble fraction, purified (Ni(II) chelate column, on-column bdSENP1 cleavage, lyophilized); not shown: histidine tag with a SUMO cleavage site, N-terminal, cleaved
B2: prf.GLFG_(37×12) (domain or fragment)
chain: GGLFGGNTQPATGGLFGGNTQPATGGLFGGNTQPATGGLFGGNTQPATGGLFGGNTQPATGGLFGGNTQPATGGLFGGNTQPATGGLFGGNTQPATGGLFGGNTQPATGGLFGGNTQPATGGLFGGNTQPATGGLFGGNTQPATGGLFGGNTQPATGGLFGGNTQPATGGLFGGNTQPATGGLFGGNTQPATGGLFGGNTQPATGGLFGGNTQPATGGLFGGNTQPATGGLFGGNTQPATGGLFGGNTQPATGGLFGGNTQPATGGLFGGNTQPATGGLFGGNTQPATGGLFGGNTQPATGGLFGGNTQPATGGLFGGNTQPATGGLFGGNTQPATGGLFGGNTQPATGGLFGGNTQPATGGLFGGNTQPATGGLFGGNTQPATGGLFGGNTQPATGGLFGGNTQPATGGLFGGNTQPATGGLFGGNTQPATGGLFGGNTQPAT
notes: also called N = 37; 37× repeats; not shown: histidine tag with a SUMO cleavage site, N-terminal, cleaved
B3: prf.GLFG_(52×12) (domain or fragment)
chain: GGLFGGNTQPATGGLFGGNTQPATGGLFGGNTQPATGGLFGGNTQPATGGLFGGNTQPATGGLFGGNTQPATGGLFGGNTQPATGGLFGGNTQPATGGLFGGNTQPATGGLFGGNTQPATGGLFGGNTQPATGGLFGGNTQPATGGLFGGNTQPATGGLFGGNTQPATGGLFGGNTQPATGGLFGGNTQPATGGLFGGNTQPATGGLFGGNTQPATGGLFGGNTQPATGGLFGGNTQPATGGLFGGNTQPATGGLFGGNTQPATGGLFGGNTQPATGGLFGGNTQPATGGLFGGNTQPATGGLFGGNTQPATGGLFGGNTQPATGGLFGGNTQPATGGLFGGNTQPATGGLFGGNTQPATGGLFGGNTQPATGGLFGGNTQPATGGLFGGNTQPATGGLFGGNTQPATGGLFGGNTQPATGGLFGGNTQPATGGLFGGNTQPATGGLFGGNTQPATGGLFGGNTQPATGGLFGGNTQPATGGLFGGNTQPATGGLFGGNTQPATGGLFGGNTQPATGGLFGGNTQPATGGLFGGNTQPATGGLFGGNTQPATGGLFGGNTQPATGGLFGGNTQPATGGLFGGNTQPATGGLFGGNTQPATGGLFGGNTQPATGGLFGGNTQPAT
notes: Engineered after the MacNup98A FG domain, GLEBS deleted; also called perfectly repeated FG domain; N = 52; source: E. coli NEB Express, extracted from inclusion bodies, purified (Ni chromatography, SUMO protease cleavage, lyophilized); not shown: histidine tag with a SUMO cleavage site, N-terminal, cleaved
B4: prf.GLFG_(70×12) (domain or fragment)
chain: GGLFGGNTQPATGGLFGGNTQPATGGLFGGNTQPATGGLFGGNTQPATGGLFGGNTQPATGGLFGGNTQPATGGLFGGNTQPATGGLFGGNTQPATGGLFGGNTQPATGGLFGGNTQPATGGLFGGNTQPATGGLFGGNTQPATGGLFGGNTQPATGGLFGGNTQPATGGLFGGNTQPATGGLFGGNTQPATGGLFGGNTQPATGGLFGGNTQPATGGLFGGNTQPATGGLFGGNTQPATGGLFGGNTQPATGGLFGGNTQPATGGLFGGNTQPATGGLFGGNTQPATGGLFGGNTQPATGGLFGGNTQPATGGLFGGNTQPATGGLFGGNTQPATGGLFGGNTQPATGGLFGGNTQPATGGLFGGNTQPATGGLFGGNTQPATGGLFGGNTQPATGGLFGGNTQPATGGLFGGNTQPATGGLFGGNTQPATGGLFGGNTQPATGGLFGGNTQPATGGLFGGNTQPATGGLFGGNTQPATGGLFGGNTQPATGGLFGGNTQPATGGLFGGNTQPATGGLFGGNTQPATGGLFGGNTQPATGGLFGGNTQPATGGLFGGNTQPATGGLFGGNTQPATGGLFGGNTQPATGGLFGGNTQPATGGLFGGNTQPATGGLFGGNTQPATGGLFGGNTQPATGGLFGGNTQPATGGLFGGNTQPATGGLFGGNTQPATGGLFGGNTQPATGGLFGGNTQPATGGLFGGNTQPATGGLFGGNTQPATGGLFGGNTQPATGGLFGGNTQPATGGLFGGNTQPATGGLFGGNTQPATGGLFGGNTQPATGGLFGGNTQPATGGLFGGNTQPATGGLFGGNTQPATGGLFGGNTQPATGGLFGGNTQPAT
notes: also called N = 70; not shown: histidine tag with a SUMO cleavage site, N-terminal, cleaved
B5: prf.GLFG_(44×12) (domain or fragment)
chain: GGLFGGNTQPATGGLFGGNTQPATGGLFGGNTQPATGGLFGGNTQPATGGLFGGNTQPATGGLFGGNTQPATGGLFGGNTQPATGGLFGGNTQPATGGLFGGNTQPATGGLFGGNTQPATGGLFGGNTQPATGGLFGGNTQPATGGLFGGNTQPATGGLFGGNTQPATGGLFGGNTQPATGGLFGGNTQPATGGLFGGNTQPATGGLFGGNTQPATGGLFGGNTQPATGGLFGGNTQPATGGLFGGNTQPATGGLFGGNTQPATGGLFGGNTQPATGGLFGGNTQPATGGLFGGNTQPATGGLFGGNTQPATGGLFGGNTQPATGGLFGGNTQPATGGLFGGNTQPATGGLFGGNTQPATGGLFGGNTQPATGGLFGGNTQPATGGLFGGNTQPATGGLFGGNTQPATGGLFGGNTQPATGGLFGGNTQPATGGLFGGNTQPATGGLFGGNTQPATGGLFGGNTQPATGGLFGGNTQPATGGLFGGNTQPATGGLFGGNTQPATGGLFGGNTQPATGGLFGGNTQPAT
notes: also called N = 44; not shown: histidine tag with a SUMO cleavage site, N-terminal, cleaved

Assays:
[1] = molecular target: the molecule itself; assay: co-sedimentation; centrifugation assay of phase separation: FG domain diluted into 20 mM NaPi pH 6.8, 5 mM DTT, NaCl, concentration and temperature as in the figures; 21,130 × g, 30 min; pellet (FG phase) and supernatant by SDS-PAGE/Coomassie; saturation concentration = concentration left in the supernatant (Formula Set 2)
[2] = molecular target: the molecule itself; assay: dynamic light scattering; self-association as LCST-type phase separation; prf.GLFG_(52×12) diluted into 20 mM NaPi pH 6.8 with 75-1200 mM NaCl, temperature raised by 1 °C per min from 2 to 40 °C; van't Hoff analysis (Formula Set 1)

Protein	binding result [1]	dH of phase separation when [NaCl] = 0 (van't Hoff) [2]
B1	binds	
B2	binds	
B3		24.4 kcal/mol
B4	binds	
B5	binds	
